Laboratory results taken from patent US20210292393A1 (published 2021).

B1: antibody 461 (antibody, V domains shown)
VH: EVQLVESGGGLVKPGGSLRLSCAASGFTFSSYSMNWVRQAPGKGLEWVSSISSSSSYIYYADSVKGRFTISRDNAKNSLYLQMNSLRAEDTAVYYCASNPAAGQEAYYYYGMDVWGQGTTVTVSS
VL: not shown
B2: antibody 469 (antibody, V domains shown)
VH: QVQLVESGGGVVQPGRSLRLSCAASGFTFSSYGMHWVRQAPGKGLEWVAVIWYDGSNKYYADSVKGRFTISRDNSKNTLYLQMNSLRAEDTAVYYCARDLLSVGWSFDYWGQGTLVTVSS
VL: not shown
B3: antibody 468 (antibody, V domains shown)
VH: QVQLVESGGGVVQPGRSLRLSCAASGFTFSIYAMHWVRQAPGKGLEWVAVISYDGSNKYYADSVKGRFTISRDNSKNTLYLQMNSLRAEDTAVYYCAGSLPAGSYYYYYGMDVWGQGTTVTVSS
VL: SYELTQPPSVSVSPGQTARITCSGDALPKQYAYWYQQKPGQAPVLVIYKDSERPSGIPERFSGSSSGTTVTLTISGVQAEDEADYYCQSADNSGTYVLFGGGTKLTVL
B4: antibody 455 (antibody, V domains shown)
VH: QVQLVQSGAEVKKPGSSVKVSCKASGGTFSSYAISWVRQAPGQGLEWMGRIIPILGIANYAQKFQGRVTITADKSTSTAYMELSSLRSEDTAVYYCARDSIVVPAAIISGYYYYGMDVWGQGTTVTVSS
VL: QSVLTQPPSVSAAPGQKVTISCSGSSSNIGNNYVSWYQQLPGTAPKLLIYDNNKRPSGIPDRFSGSKSGTSATLGITGLQTGDEADYYCGTWDSSLSAGRVFGGGTKLTVL
B5: antibody 489 (antibody, V domains shown)
VH: QVQLVESGGGVVQPGRSLRLSCAASGFTFSSYAMHWVRQAPGKGLEWVAVISYDGSNKYYADSVKGRFTISRDNSKNTLYLQMNSLRAEDTAVYYCARAGSGNYYNWFDPWGQGTLVTVSS
VL: not shown
B6: antibody 458 (antibody, V domains shown)
VH: QVQLVESGGGVVQPGRSLRLSCAASEFTFATYAMHWVRQAPGKGLEWVALISQDGSNKHYADSVKGRFTISRDNSKNTLYLQMNSLRAEGTAIYYCARESLEAAGPPFDYWGQGTLVTVSS
VL: SYELTQPPSVSVSPGQTATIICSGDKLGEKYASWYQQKPGQSPALVIYQDRKRPSGIPERFSGSNSGNTATLTISGTQAMDEADYYCQAWDSSNSVVFGGGTKLTVP
B7: antibody 462 (antibody, V domains shown)
VH: QVQLVESGGGVVQPGRSLRLSCAASGFTFSSYGMHWVRQAPGKGLEWVAVIWYDGNNKYYADSVKGRFTISRDNSKNTLYLQMNSLRAEDTAVYYCAKDPTWFGELPSYYYYGMDVWGQGTTVTVSS
VL: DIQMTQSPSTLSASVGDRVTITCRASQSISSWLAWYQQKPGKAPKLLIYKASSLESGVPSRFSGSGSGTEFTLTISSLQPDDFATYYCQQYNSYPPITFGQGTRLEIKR
B8: antibody 481 (antibody, V domains shown)
VH: EVQLVESGGGLIQPGGSLRLSCAASGFTVSSNYMSWVRQAPGKGLEWVSVIYSGGSTFYADSVKGRFTISRDNSKNTLYLQMNSLRAEDTAVYYCAREVAGTYDYWGQGTLVTVSS
VL: DIQMTQSPSSVSASVGDRVTITCRASQGISSWLAWYQQKPGKAPKLLIYAASSLQSGVPSRFSGSGSGTDFTLTISSLQPEDFATYYCQQANSFPGGTFGPGTKVDIKR
B9: antibody 465 (antibody, V domains shown)
VH: QITLKESGPTLVKPTQTLTLTCTFSGFSLSTSGVGVGWIRQPPGKALEWLALIYWDDDKHYSPSLKSRLTITKDTSKNQVVLTMTNMDPVDTATYYCAHMYYDILSGYYYGMDVWGQGTTVTVSS
VL: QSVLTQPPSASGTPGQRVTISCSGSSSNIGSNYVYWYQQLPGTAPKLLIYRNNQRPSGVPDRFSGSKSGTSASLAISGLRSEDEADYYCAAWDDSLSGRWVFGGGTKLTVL

Target: SARS-CoV-2 spike protein (SARS-CoV-2, UniProt P0DTC2 14-1208)

Binder | Kd | koff | kon
B1 | 3.92 nM | 0.000377 s⁻¹ | 96300 M⁻¹ s⁻¹
B2 | 0.133 nM | 8.39e-05 s⁻¹ | 630000 M⁻¹ s⁻¹
B3 | 0.463 nM | 3.67e-05 s⁻¹ | 79200 M⁻¹ s⁻¹
B4 | 0.866 nM | 9.23e-05 s⁻¹ | 107000 M⁻¹ s⁻¹
B5 | 0.317 nM | 4.85e-05 s⁻¹ | 153000 M⁻¹ s⁻¹
B6 | 0.334 nM | 8.87e-05 s⁻¹ | 266000 M⁻¹ s⁻¹
B7 | 9.31 nM | 0.00117 s⁻¹ | 125000 M⁻¹ s⁻¹
B8 | 0.273 nM | 2.96e-05 s⁻¹ | 109000 M⁻¹ s⁻¹
B9 | 6.97 nM | 6.06e-05 s⁻¹ | 8700 M⁻¹ s⁻¹
